Measured values as given in paper PMC3193277.

Molecular target: 6xHis-p53 (UniProt P04637 1-393)
Test: EMSA

Sequence of 6xHis-p53 (P04637 whole entry): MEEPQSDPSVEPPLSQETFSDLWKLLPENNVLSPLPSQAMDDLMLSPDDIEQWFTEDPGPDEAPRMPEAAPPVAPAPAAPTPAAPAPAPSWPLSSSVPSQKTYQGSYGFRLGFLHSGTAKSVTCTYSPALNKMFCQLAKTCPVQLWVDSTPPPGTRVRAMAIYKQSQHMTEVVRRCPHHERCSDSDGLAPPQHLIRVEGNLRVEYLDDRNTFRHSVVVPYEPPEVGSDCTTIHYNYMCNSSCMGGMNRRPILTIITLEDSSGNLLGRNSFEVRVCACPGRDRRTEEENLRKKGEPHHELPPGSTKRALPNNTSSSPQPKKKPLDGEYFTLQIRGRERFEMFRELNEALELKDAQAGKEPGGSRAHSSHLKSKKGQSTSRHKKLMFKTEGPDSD

B1: GADD45 probe (intron 3 p53RE) (dsDNA)
DNA 1: GTAGCTGATATCGAATTCTCGAGCAGAACATGTCTAAGCATGCTGGGCTCGAGAATTCCTGCAGCC
DNA 2: GGCTGCAGGAATTCTCGAGCCCAGCATGCTTAGACATGTTCTGCTCGAGAATTCGATATCAGCTAC
  binding result: binds
